Results: IntAct's records for PubMed 31515488

B1: Septin-12 (Homo sapiens), Q8IYM1 (parent)
chain: MDPLRRSPSPCLSSQPSSPSTPPCEMLGPVGIEAVLDQLKIKAMKMGFEFNIMVVGQSGLGKSTMVNTLFKSKVWKSNPPGLGVPTPQTLQLHSLTHVIEEKGVKLKLTVTDTPGFGDQINNDNCWDPILGYINEQYEQYLQEEILITRQRHIPDTRVHCCVYFVPPTGHCLRPLDIEFLQRLCRTVNVVPVIARADSLTMEEREAFRRRIQQNLRTHCIDVYPQMCFDEDINDKILNSKLRDRIPFAVVGADQEHLVNGRCVLGRKTKWGIIEVENMAHCEFPLLRDLLIRSHLQDLKDITHNIHYENYRVIRLNESHLLPRGPGWVNLAPASPGQLTTPRTFKVCRGAHDDSDDEF
partner: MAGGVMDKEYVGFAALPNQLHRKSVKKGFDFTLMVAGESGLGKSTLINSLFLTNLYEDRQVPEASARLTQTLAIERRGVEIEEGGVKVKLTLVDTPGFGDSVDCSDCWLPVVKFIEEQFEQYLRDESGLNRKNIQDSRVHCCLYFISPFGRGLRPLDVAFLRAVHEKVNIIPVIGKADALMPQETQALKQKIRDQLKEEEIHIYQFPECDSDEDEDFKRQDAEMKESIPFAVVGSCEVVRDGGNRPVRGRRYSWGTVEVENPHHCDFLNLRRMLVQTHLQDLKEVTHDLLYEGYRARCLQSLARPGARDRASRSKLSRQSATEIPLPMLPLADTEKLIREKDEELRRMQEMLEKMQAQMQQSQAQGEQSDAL
B2: Isoform 1 of Myotubularin-related protein 9 (Homo sapiens), Q96QG7-1 (parent)
chain: MEFAELIKTPRVDNVVLHRPFYPAVEGTLCLTGHHLILSSRQDNTEELWLLHSNIDAIDKRFVGSLGTIIIKCKDFRIIQLDIPGMEECLNIASSIEALSTLDSITLMYPFFYRPMFEVIEDGWHSFLPEQEFELYSSATSEWRLSYVNKEFAVCPSYPPIVTVPKSIDDEALRKVATFRHGGRFPVLSYYHKKNGMVIMRSGQPLTGTNGRRCKEDEKLINATLRAGKRGYIIDTRSLNVAQQTRAKGGGFEQEAHYPQWRRIHKSIERYHILQESLIKLVEACNDQTHNMDRWLSKLEASNWLTHIKEILTTACLAAQCIDREGASILIHGTEGTDSTLQVTSLAQIILEPRSRTIRGFEALIEREWLQAGHPFQQRCAQSAYCNTKQKWEAPVFLLFLDCVWQILRQFPCSFEFNENFLIMLFEHAYASQFGTFLGNNESERCKLKLQQKTMSLWSWVNQPSELSKFTNPLFEANNLVIWPSVAPQSLPLWEGIFLRWNRSSKYLDEAYEEMVNIIEYNKELQAKVNILRRQLAELETEDGMQESP
B3: RNA-binding protein 15 (Homo sapiens), Q96T37-3 (parent)
chain: MRTAGRDPVPRRSPRWRRAVPLCETSAGRRVTQLRGDDLRRPATMKGKERSPVKAKRSRGGEDSTSRGERSKKLGGSGGSNGSSSGKTDSGGGSRRSLHLDKSSSRGGSREYDTGGGSSSSRLHSYSSPSTKNSSGGGESRSSSRGGGGESRSSGAASSAPGGGDGAEYKTLKISELGSQLSDEAVEDGLFHEFKRFGDVSVKISHLSGSGSGDERVAFVNFRRPEDARAAKHARGRLVLYDRPLKIEAVYVSRRRSRSPLDKDTYPPSASVVGASVGGHRHPPGGGGGQRSLSPGGAALGYRDYRLQQLALGRLPPPPPPPLPRDLERERDYPFYERVRPAYSLEPRVGAGAGAAPFREVDEISPEDDQRANRTLFLGNLDITVTESDLRRAFDRFGVITEVDIKRPSRGQTSTYGFLKFENLDMSHRAKLAMSGKIIIRNPIKIGYGKATPTTRLWVGGLGPWVPLAALAREFDRFGTIRTIDYRKGDSWAYIQYESLDAAHAAWTHMRGFPLGGPDRRLRVDFADTEHRYQQQYLQPLPLTHYELVTDAFGHRAPDPLRGARDRTPPLLYRDRDRDLYPDSDWVPPPPPVRERSTRTAATSVPAYEPLDSLDRRRDGWSLDRDRGDRDLPSSRDQPRKRRLPEESGGRHLDRSPESDRPRKRHCAPSPDRSPELSSSRDRYNSDNDRSSRLLLERPSPIRDRRGSLEKSQGDKRDRKNSASAERDRKHRTTAPTEGKSPLKKEDRSDGSAPSTSTASSKLKSPSQKQDGGTAPVASASPKLCLAWQGMLLLKNSNFPSNMHLLQGDLQVASSLLVEGSTGGKVAQLKITQRLRLDQPKLDEVTRRIKVAGPNGYAILLAVPGSSDSRSSSSSAASDTATSTQRPLRNLVSYLKQKQAAGVISLPVGGNKDKENTGVLHAFPPCEFSQQFLDSPAKALAKSEEDYLVMIIVRAKLVEQRMKIWNSKL

Variants of: B1
Details: with sept1_human SEPTIN1, Q8WYJ6

Variant	effect of a mutation on the interaction
MDPLRRSPSPCLSSQPSSPSTPPCEMLGPVGIEAVLDQLKIKAMKMGFEFNIMVVGQSGLGKSTMVNTLFKSKVWKSNPPGLGVPTPQTLQLHSLTHVIEEKGVKLKLTVTDTPGFGDQINNDNCWDPILGYINEQYEQYLQEEILITRQRHIPDTRVHCCVYFVPPTGHCLRPLDIEFLQRLCRTVNVVPVIARANSLTMEEREAFRRRIQQNLRTHCIDVYPQMCFDEDINDKILNSKLRDRIPFAVVGADQEHLVNGRCVLGRKTKWGIIEVENMAHCEFPLLRDLLIRSHLQDLKDITHNIHYENYRVIRLNESHLLPRGPGWVNLAPASPGQLTTPRTFKVCRGAHDDSDDEF [D197N]	disrupting interaction strength
MDPLRRSPSPCLSSQPSSPSTPPCEMLGPVGIEAVLDQLKIKAMKMGFEFNIMVVGQSGLGKSTMVNTLFKSKVWKSNPPGLGVPTPQTLQLHSLTHVIEEKGVKLKLTVTDTPGFGDQINNDNCWDPILGYINEQYEQYLQEEILITRQRHIPDTRVHCCVYFVPPTEHCLRPLDIEFLQRLCRTVNVVPVIARADSLTMEEREAFRRRIQQNLRTHCIDVYPQMCFDEDINDKILNSKLRDRIPFAVVGADQEHLVNGRCVLGRKTKWGIIEVENMAHCEFPLLRDLLIRSHLQDLKDITHNIHYENYRVIRLNESHLLPRGPGWVNLAPASPGQLTTPRTFKVCRGAHDDSDDEF [G169E]	disrupting interaction strength

Variants of: B1
Details: with sept1_human SEPTIN1, Q8WYJ6
Remark: another data set of the same source

Variant	effect of a mutation on the interaction
MDPLRRSPSPCLSSQPSSPSTPPCEMLGPVGIEAVLDQLKIKAMKMGFEFNIMVVGQSGLGKSTMVNTLFKSKVWKSNPPGLGVPTPQTLQLHSLTHVIEEKGVKLKLTVTDTPGFGDQINNDNCWDPILGYINEQYEQYLQEEILITRQRHIPDTRVHCCVYFVPPTGHCLRPLDIEFLQRLCRTVNVVPVIARADSLTMEEREAFRRRIQRNLRTHCIDVYPQMCFDEDINDKILNSKLRDRIPFAVVGADQEHLVNGRCVLGRKTKWGIIEVENMAHCEFPLLRDLLIRSHLQDLKDITHNIHYENYRVIRLNESHLLPRGPGWVNLAPASPGQLTTPRTFKVCRGAHDDSDDEF [Q213R]	disrupting interaction strength
MDPLRRSPSPCLSSQPSSPSTPPCEMLGPVGIEAVLDQLKIKAMKMGFEFNIMVVGQSGLGKSTMVNTLFKSKVWKSNPPGLGVPTPQTLQLHSLTHVIEEKGVKLKLTVTDTPGFGDQINNDNCWDPILGYINEQYEQYLQEEILITRQRHIPDTRVHCCVYFVPPTGHCLRPLDIEFLQRLCRTVNVVPVIARADSLTMEEQEAFRRRIQQNLRTHCIDVYPQMCFDEDINDKILNSKLRDRIPFAVVGADQEHLVNGRCVLGRKTKWGIIEVENMAHCEFPLLRDLLIRSHLQDLKDITHNIHYENYRVIRLNESHLLPRGPGWVNLAPASPGQLTTPRTFKVCRGAHDDSDDEF [R204Q]	disrupting interaction strength
MDPLRRSPSPCLSSQPSSPSTPPCEMLGPVGIEAVLDQLKIKAMKMGFEFNIMVVGQSGLGKSTMVNTLFKSKVWKSNPPGLGVPTPQTLQLHSLTHVIEEKGVKLKLTVTDTPGFGDQINNDNCWDPILGYINEQYEQYLQEEILITRQRHIPDTRVHCCMYFVPPTGHCLRPLDIEFLQRLCRTVNVVPVIARADSLTMEEREAFRRRIQQNLRTHCIDVYPQMCFDEDINDKILNSKLRDRIPFAVVGADQEHLVNGRCVLGRKTKWGIIEVENMAHCEFPLLRDLLIRSHLQDLKDITHNIHYENYRVIRLNESHLLPRGPGWVNLAPASPGQLTTPRTFKVCRGAHDDSDDEF [V162M]	disrupting interaction strength

Variants of: B2
Details: with emil1_human EMILIN1, Q9Y6C2
Chain of emil1_human EMILIN1, Q9Y6C2 (Q9Y6C2 whole entry): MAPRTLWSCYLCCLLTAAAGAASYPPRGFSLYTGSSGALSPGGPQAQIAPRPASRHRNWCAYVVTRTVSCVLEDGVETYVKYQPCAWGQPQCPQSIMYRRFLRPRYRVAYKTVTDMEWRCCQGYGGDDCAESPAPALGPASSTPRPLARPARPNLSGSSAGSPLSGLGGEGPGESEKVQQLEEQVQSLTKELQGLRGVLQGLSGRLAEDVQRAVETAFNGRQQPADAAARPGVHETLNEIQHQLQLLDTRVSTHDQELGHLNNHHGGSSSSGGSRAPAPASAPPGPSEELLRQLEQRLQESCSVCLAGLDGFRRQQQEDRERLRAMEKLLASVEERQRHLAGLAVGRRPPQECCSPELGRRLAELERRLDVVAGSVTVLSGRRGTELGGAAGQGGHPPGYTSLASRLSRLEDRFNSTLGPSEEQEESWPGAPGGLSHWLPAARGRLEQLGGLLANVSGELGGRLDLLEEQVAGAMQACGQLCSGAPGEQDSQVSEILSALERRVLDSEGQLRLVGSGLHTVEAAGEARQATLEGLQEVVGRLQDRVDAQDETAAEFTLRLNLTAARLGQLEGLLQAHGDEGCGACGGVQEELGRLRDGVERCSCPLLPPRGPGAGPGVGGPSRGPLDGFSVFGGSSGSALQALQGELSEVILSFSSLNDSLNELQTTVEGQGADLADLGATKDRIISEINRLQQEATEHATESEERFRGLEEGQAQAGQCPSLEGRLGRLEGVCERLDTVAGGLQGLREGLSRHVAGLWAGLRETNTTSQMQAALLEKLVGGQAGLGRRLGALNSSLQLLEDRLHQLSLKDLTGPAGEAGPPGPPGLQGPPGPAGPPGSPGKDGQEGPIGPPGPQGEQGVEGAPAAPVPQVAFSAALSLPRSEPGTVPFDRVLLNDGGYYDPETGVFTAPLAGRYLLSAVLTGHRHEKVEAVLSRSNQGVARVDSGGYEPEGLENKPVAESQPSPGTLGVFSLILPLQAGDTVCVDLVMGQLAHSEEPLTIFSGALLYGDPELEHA

Variant	effect of a mutation on the interaction
MEFAELIKTPRVDNVVLHRPFYPAVEGTLCLTGHHLILSSRQDNTEELWLLHSNIDAIDKRFVGSLGTIIIKCKDFRIIQLDIPGMEECLNIASSIEALSTLDSITLMYPFFYRPMFEVIEDGWHSILPEQEFELYSSATSEWRLSYVNKEFAVCPSYPPIVTVPKSIDDEALRKVATFRHGGRFPVLSYYHKKNGMVIMRSGQPLTGTNGRRCKEDEKLINATLRAGKRGYIIDTRSLNVAQQTRAKGGGFEQEAHYPQWRRIHKSIERYHILQESLIKLVEACNDQTHNMDRWLSKLEASNWLTHIKEILTTACLAAQCIDREGASILIHGTEGTDSTLQVTSLAQIILEPRSRTIRGFEALIEREWLQAGHPFQQRCAQSAYCNTKQKWEAPVFLLFLDCVWQILRQFPCSFEFNENFLIMLFEHAYASQFGTFLGNNESERCKLKLQQKTMSLWSWVNQPSELSKFTNPLFEANNLVIWPSVAPQSLPLWEGIFLRWNRSSKYLDEAYEEMVNIIEYNKELQAKVNILRRQLAELETEDGMQESP [F127I]	with no effect

Variants of: B2
Details: with lnx1_human LNX1, Q8TBB1
Chain of lnx1_human LNX1, Q8TBB1 (Q8TBB1 whole entry): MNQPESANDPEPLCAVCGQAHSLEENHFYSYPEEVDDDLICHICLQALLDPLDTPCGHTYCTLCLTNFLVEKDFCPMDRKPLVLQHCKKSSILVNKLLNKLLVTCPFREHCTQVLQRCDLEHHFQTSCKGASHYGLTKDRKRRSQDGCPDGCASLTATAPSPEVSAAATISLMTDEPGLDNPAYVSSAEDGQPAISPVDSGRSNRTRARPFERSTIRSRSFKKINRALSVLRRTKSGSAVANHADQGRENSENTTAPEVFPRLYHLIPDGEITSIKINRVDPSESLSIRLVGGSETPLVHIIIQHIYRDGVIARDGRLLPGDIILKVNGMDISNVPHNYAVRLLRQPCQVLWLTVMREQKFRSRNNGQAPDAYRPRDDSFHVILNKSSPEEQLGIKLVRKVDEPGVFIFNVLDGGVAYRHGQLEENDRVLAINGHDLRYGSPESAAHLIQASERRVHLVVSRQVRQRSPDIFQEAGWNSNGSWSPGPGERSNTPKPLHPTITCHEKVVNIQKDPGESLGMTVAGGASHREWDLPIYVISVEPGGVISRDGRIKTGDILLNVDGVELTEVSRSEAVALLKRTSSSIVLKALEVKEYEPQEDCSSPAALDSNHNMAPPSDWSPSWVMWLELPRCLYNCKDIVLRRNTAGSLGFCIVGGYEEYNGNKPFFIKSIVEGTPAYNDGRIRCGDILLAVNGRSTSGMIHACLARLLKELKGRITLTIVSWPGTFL

Variant	effect of a mutation on the interaction
MEFAELIKTPRVDNVVLHRPFYPAVEGTLCLTGHHLILSSRQDNTEELWLLHSNIDAIDKRFVGSLGTIIIKCKDFRIIQLDIPGMEECLNIASSIEALSTLDSITLMYPFFYRPMFEVIEDGWHSILPEQEFELYSSATSEWRLSYVNKEFAVCPSYPPIVTVPKSIDDEALRKVATFRHGGRFPVLSYYHKKNGMVIMRSGQPLTGTNGRRCKEDEKLINATLRAGKRGYIIDTRSLNVAQQTRAKGGGFEQEAHYPQWRRIHKSIERYHILQESLIKLVEACNDQTHNMDRWLSKLEASNWLTHIKEILTTACLAAQCIDREGASILIHGTEGTDSTLQVTSLAQIILEPRSRTIRGFEALIEREWLQAGHPFQQRCAQSAYCNTKQKWEAPVFLLFLDCVWQILRQFPCSFEFNENFLIMLFEHAYASQFGTFLGNNESERCKLKLQQKTMSLWSWVNQPSELSKFTNPLFEANNLVIWPSVAPQSLPLWEGIFLRWNRSSKYLDEAYEEMVNIIEYNKELQAKVNILRRQLAELETEDGMQESP [F127I]	with no effect

Variants of: B3
Details: with nav2_human NAV2, Q8IVL1
Chain of nav2_human NAV2, Q8IVL1 (Q8IVL1 whole entry): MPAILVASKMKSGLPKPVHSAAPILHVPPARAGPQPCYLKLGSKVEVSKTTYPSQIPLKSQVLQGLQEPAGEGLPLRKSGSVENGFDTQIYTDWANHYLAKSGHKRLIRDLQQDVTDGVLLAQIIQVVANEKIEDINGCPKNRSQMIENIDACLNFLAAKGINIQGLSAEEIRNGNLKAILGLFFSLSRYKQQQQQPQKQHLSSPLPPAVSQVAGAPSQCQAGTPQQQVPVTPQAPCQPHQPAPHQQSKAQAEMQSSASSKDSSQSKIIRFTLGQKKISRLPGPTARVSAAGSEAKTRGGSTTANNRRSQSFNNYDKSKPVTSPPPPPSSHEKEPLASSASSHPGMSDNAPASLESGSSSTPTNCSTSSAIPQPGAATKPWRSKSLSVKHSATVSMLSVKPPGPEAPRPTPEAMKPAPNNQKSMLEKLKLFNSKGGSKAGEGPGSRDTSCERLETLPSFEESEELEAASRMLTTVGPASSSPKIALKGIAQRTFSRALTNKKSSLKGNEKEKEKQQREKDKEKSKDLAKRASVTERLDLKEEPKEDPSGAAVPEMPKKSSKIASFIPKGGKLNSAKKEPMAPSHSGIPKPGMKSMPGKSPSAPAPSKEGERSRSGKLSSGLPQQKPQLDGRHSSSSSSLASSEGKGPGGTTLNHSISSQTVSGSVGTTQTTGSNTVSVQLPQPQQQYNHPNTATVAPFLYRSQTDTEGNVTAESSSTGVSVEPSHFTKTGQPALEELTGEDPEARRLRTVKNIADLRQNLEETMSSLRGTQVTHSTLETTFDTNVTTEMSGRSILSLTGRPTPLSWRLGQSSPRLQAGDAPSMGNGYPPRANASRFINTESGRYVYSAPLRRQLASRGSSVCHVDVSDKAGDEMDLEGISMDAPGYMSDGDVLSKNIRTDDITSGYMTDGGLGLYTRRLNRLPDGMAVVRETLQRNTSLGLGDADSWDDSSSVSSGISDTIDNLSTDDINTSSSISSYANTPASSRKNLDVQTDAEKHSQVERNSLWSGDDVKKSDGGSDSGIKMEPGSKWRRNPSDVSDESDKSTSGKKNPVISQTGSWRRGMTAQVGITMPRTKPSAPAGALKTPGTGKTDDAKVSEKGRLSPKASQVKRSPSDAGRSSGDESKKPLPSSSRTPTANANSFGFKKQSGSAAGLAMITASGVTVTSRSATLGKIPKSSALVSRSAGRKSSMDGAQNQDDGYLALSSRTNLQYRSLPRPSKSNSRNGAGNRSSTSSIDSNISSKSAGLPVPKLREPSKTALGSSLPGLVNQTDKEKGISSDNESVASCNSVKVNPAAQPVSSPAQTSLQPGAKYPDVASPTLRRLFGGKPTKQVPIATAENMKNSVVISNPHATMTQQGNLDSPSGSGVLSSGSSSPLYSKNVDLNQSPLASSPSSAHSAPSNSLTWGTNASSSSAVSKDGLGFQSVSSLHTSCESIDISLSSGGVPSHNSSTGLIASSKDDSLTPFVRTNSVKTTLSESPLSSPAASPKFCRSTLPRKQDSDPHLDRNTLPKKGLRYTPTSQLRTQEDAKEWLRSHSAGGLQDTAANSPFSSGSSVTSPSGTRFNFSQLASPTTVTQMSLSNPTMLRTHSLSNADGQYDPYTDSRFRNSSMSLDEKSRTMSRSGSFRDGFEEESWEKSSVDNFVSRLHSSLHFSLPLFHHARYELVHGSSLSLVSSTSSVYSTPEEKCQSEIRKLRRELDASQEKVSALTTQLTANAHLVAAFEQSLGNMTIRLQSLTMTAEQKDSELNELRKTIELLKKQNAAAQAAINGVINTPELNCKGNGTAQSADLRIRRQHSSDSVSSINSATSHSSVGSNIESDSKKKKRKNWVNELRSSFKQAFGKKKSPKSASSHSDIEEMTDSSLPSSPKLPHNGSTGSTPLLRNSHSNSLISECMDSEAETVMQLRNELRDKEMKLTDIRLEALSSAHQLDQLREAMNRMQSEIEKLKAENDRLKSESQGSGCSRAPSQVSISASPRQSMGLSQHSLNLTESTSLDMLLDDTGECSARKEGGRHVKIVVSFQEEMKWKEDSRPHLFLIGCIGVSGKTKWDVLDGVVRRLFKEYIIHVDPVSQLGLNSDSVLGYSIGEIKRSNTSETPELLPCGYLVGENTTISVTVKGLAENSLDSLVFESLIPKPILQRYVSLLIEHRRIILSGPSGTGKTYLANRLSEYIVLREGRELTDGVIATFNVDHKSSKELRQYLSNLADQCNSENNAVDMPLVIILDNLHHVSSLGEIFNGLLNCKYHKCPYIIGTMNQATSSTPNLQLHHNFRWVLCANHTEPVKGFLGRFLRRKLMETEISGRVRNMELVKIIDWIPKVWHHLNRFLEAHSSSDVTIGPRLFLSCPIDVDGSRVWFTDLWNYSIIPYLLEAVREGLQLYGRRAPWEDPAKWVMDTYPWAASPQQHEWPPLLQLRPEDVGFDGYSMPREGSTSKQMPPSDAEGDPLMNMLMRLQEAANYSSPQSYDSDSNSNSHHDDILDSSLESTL

Variant	effect of a mutation on the interaction
R961Q	disrupting interaction strength
